Assay results from patent US20030059436A1, “Band 3 antigenic peptides, malaria polypeptides and uses thereof” (priority 2001, published 2003).
Ends that are not written are not given here.

Key:
[1] = molecular target: mouse erythroid Band 3 protein on wild-type mouse RBCs (mouse) (UniProt P04919); experiment: 32P-MSP119 on intact Band 3 (-/-) mouse RBCs against untreated wild-type mouse RBCs in suspension
[2] = molecular target: mouse erythroid Band 3 protein on wild-type mouse RBCs (mouse) (UniProt P04919); experiment: 32P-MSP119 on intact mouse RBCs in suspension; RBCs treated with neuraminidase, against untreated RBCs
[3] = molecular target: human erythroid Band 3 protein (Anion Exchanger 1) on human RBCs (human) (UniProt P02730); experiment: 32P-MSP119 on intact human RBCs in suspension; RBCs treated with chymotrypsin 40 min, against untreated RBCs
[4] = molecular target: mouse erythroid Band 3 protein on wild-type mouse RBCs (mouse) (UniProt P04919); experiment: 32P-MSP119 on intact mouse RBCs in suspension; RBCs treated with chymotrypsin 40 min, against untreated RBCs
[5] = molecular target: human erythroid Band 3 protein (Anion Exchanger 1) on human RBCs (human) (UniProt P02730); experiment: 32P-MSP119 on intact human RBCs in suspension; RBCs treated with neuraminidase, against untreated RBCs
[6] = molecular target: human erythroid Band 3 protein (Anion Exchanger 1) on human RBCs (human) (UniProt P02730); experiment: 32P-MSP119 on intact human RBCs in suspension; RBCs treated with chymotrypsin 10 min, against untreated RBCs
RBCs = conditions: literature reports; cited from earlier work
GST-5ABC = molecular target: T1, GST-5ABC (Homo sapiens, UniProt P02730); experiment: Native MSP1 binding to GST-5ABC beads; conditions: Triton X-100 parasite extract, 22-24 h at 4° C.; GST beads as control
T1 construct: The 5ABC (amino acid 720-761), 5BC (731-761), and 6AB (807-842) genes were amplified from a human reticulocyte cDNA library; made in house; host or cells: E. coli (pGEX-2TK)
T1 sequence (P02730 720-761): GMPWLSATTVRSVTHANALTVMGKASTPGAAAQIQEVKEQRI

GST-MSP142 = molecular target: T2, GST-MSP142 (Plasmodium falciparum, UniProt P04933); experiment: Solution-binding assay, GST-MSP142 on beads; set-up: species or system P. falciparum (FCB1 strain)
T2 construct: amino acids 1264-1639; made in house; host or cells: E. coli DH5α (pGEX6P-2)
Source text: (§1) MSP138 (SEQ ID NO:33), MSP142 (SEQ ID NO:34), and MSP119 (SEQ ID NO:35) genes were amplified from a P. falciparum (FCB1 strain) cDNA library (J. B. Dame) by PCR using the following primers: 5′-[…] (SEQ ID NO: 14, MSP138, sense, 3121-3133, Xhol), 5′-[…] (SEQ ID NO:15, MSP138, antisense, 4200-4193, NotI), 5′-[…] (SEQ ID NO:16, MSP142, sense, 4201-4218, XhoI), 5′-[…] (SEQ ID NO:17, MSP142, antisense, 5334-5321 NotI), 5′-[…]: (SEQ ID NO:18, MSP119, sense, 4993-5009 BamHI), 5′-[…] (SEQ ID NO:19, MSP119, antisense, 5334-5318, EcoRI). Similar cDNA libraries as well as CDNA pools are available to the public from MR4, ATCC (www.malaria.atcc.org).
(§2) Primers: 5′-[…] […] (SEQ ID NO:26, 6AB, antisense, 2640-2620, EcoRI).

GST-MSP138 = experiment: Solution-binding assay, GST-MSP138 on beads; set-up: species or system P. falciparum (FCB1 strain); conditions: 32P-labeled 5BC 21, 42, 84, 168 μM
Source text: as §1, §2

[7] = molecular target: T3, SV40 large T-antigen fused to GAL4 AD (pGADT7 vector), two-hybrid control (UniProt P03070 86-708); experiment: yeast two-hybrid assay (negative control)
T3 construct: Kit control; also called pGADT7-T

[8] = molecular target: GST-MSP138 (P. falciparum FCB1 MSP1 38 kDa fragment as GST fusion protein, C-terminal truncated forms) (Plasmodium falciparum (FCB1 strain)) [GST: P08515]; experiment: solution-binding assay, 32P-labeled peptide on GST fusion beads
[9] = system: mouse RBCs fixed in methanol; conditions: GST-MSP142 1 μM, GST-MSP138 8 μM
Experimental: (§3) RBCs freshly collected into citrate phosphate dextrose buffer were washed (3×) and resuspended in RPMI (20% hematocrit). Thin smears of RBCs on glass slides were allowed to air-dry and fixed in methanol (20-30 sec). The slides were washed with PBS (1×), blocked with 10% fetal bovine serum (FBS) in PBS (pH 7.4) for 1.5 h at 37° C., and again washed with PBS (5×, 10 min each). Fixed cells were incubated with GST-MSP142 (1 μM), GST-MSP138 (8 μM), or GST (9 μM) for 3.5 h at 37° C. in 10% FBS. Slide samples were washed with PBS (5×), incubated with goat anti-GST antibody (1:1,000, Amersham Pharmacia Biotech), washed again (5×), and incubated with rabbit anti-goat FITC-conjugated antibody (1:60, Sigma-Aldrich, St. Louis, Mo.). For visualizing spectrin, fixed cells treated with 10% FBS were incubated with a rabbit antibody raised against human spectrin (Sigma-Aldrich) followed by goat anti-rabbit FITC-conjugated antibody. All dilutions of proteins and antibodies were made in 10% FBS except FITC-conjugated antibodies.
(§4) First, the above-described RBC binding assay was performed using ^32P-labeled MSP119 and intact Band 3 (−/−) mouse RBCs in suspension. […] In the second method, we carried out an indirect immunofluorescence assay (IFA) using wild-type human and mouse RBCs and Band 3 (−/−) mouse RBCs fixed in methanol.

[10] = system: human RBCs fixed in methanol; conditions: GST-MSP142 1 μM, GST-MSP138 8 μM; GST alone did not bind
Experimental: as §3, §4

[11] = molecular target: GST-MSP142 (P. falciparum FCB1 MSP1 42 kDa fragment as GST fusion protein) (Plasmodium falciparum (FCB1 strain)) [GST: P08515]; experiment: solution-binding assay, 32P-labeled peptide on GST fusion beads
[12] = molecular target: T3, SV40 large T-antigen fused to GAL4 AD …; experiment: yeast two-hybrid assay (positive control)

Chain of human erythroid Band 3 protein (Anion Exchanger 1) on human RBCs (human) (P02730 whole entry, form in doubt): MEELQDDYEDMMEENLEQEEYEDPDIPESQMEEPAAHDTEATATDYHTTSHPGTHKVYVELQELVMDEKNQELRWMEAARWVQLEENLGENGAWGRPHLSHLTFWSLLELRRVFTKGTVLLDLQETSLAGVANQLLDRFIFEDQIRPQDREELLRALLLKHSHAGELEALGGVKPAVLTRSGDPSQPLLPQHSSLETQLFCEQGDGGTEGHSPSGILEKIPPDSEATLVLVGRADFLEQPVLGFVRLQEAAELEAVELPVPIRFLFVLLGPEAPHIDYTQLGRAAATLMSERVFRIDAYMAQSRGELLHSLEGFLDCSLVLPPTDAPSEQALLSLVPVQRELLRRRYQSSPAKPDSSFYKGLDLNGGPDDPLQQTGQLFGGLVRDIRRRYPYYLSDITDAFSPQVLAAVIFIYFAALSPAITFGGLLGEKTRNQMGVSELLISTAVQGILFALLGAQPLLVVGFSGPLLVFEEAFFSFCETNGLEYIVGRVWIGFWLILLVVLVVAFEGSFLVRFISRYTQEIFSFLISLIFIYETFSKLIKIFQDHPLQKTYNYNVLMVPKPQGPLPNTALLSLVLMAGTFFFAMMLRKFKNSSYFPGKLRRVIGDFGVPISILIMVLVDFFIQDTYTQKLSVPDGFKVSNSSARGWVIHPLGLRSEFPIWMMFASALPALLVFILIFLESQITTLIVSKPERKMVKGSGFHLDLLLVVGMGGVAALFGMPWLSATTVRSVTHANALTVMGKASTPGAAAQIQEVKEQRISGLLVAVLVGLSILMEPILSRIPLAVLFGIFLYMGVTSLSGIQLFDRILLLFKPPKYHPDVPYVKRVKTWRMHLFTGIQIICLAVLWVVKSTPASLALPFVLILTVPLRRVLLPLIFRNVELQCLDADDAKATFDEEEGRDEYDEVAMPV
Chain of mouse erythroid Band 3 protein on wild-type mouse RBCs (mouse) (P04919 whole entry): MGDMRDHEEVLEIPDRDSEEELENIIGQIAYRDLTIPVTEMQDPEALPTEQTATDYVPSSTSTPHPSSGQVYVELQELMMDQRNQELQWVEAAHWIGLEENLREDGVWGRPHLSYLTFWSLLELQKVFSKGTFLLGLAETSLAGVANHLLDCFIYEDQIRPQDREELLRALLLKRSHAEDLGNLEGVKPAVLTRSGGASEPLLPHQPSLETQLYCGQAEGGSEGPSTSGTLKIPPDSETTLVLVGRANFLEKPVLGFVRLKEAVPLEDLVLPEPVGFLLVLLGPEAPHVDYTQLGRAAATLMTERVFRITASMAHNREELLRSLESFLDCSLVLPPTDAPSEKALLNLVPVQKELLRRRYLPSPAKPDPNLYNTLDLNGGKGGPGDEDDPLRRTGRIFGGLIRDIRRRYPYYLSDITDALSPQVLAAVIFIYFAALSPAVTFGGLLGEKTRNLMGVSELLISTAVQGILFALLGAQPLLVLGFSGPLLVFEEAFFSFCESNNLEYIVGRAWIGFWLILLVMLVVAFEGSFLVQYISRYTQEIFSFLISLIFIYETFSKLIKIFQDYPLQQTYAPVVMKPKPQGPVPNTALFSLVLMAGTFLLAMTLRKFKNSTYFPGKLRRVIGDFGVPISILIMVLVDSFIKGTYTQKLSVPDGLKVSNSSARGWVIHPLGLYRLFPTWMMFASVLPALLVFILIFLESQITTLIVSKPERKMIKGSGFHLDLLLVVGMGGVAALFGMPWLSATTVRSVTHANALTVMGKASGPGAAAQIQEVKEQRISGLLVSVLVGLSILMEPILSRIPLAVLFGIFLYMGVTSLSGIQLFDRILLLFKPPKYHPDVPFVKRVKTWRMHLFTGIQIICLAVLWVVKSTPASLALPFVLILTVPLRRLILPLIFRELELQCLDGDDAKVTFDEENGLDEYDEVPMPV
T2 sequence (P04933 1264-1639): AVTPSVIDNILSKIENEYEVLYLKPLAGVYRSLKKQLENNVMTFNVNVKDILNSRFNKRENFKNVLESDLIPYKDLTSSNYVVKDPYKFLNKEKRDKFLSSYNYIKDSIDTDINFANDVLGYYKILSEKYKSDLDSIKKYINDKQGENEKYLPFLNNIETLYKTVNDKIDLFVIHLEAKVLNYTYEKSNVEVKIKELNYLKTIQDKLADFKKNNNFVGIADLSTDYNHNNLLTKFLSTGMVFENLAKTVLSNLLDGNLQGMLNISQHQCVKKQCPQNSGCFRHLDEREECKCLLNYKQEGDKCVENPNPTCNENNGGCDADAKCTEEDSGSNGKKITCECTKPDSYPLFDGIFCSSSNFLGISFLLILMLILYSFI
T3 sequence (P03070 86-708 limits assumed): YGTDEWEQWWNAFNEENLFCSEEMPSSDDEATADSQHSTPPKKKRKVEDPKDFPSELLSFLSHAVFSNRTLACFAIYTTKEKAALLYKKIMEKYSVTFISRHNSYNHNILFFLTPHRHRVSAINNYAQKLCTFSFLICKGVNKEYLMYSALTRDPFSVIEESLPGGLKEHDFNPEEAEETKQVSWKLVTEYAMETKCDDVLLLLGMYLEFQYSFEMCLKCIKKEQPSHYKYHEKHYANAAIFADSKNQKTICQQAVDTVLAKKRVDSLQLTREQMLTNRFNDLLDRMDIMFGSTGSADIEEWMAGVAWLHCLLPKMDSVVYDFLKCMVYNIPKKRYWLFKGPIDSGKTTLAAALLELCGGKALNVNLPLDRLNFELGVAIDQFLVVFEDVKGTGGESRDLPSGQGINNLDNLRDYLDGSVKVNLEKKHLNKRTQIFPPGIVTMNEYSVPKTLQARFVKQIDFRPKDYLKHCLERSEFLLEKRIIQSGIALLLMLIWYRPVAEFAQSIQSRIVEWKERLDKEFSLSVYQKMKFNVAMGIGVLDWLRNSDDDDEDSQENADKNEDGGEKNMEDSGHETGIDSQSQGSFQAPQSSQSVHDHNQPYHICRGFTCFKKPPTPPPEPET
Chain of GST-MSP138 (P. falciparum FCB1 MSP1 38 kDa fragment as GST fusion protein, C-terminal truncated forms) (Plasmodium falciparum (FCB1 strain)) [GST: P08515] (P08515 whole entry, the tested form may be a part): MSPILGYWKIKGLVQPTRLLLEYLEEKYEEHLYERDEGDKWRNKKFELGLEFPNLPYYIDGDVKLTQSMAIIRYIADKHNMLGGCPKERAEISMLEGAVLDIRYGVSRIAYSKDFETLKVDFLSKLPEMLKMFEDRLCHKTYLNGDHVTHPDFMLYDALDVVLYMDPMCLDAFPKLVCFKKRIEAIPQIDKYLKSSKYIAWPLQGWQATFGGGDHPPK
Chain of GST-MSP142 (P. falciparum FCB1 MSP1 42 kDa fragment as GST fusion protein) (Plasmodium falciparum (FCB1 strain)) [GST: P08515] (P08515 whole entry, the tested form may be a part): as above

With “32P-labeled MSP119 (P. falciparum FCB1 MSP1 19 kDa C-terminal fragment, GST removed with thrombin) (ligand)” the reduction of radioactivity associated with Band 3 (-/-) mouse RBCs as compared to untreated wild-type mouse RBCs [1] was 72%, the increase in ability to bind MSP119 as compared to the untreated RBCs [2] was 51% and the reduction in ability to bind MSP119 as compared to the untreated RBCs [3] was 37%. For the same molecule, the reduction in ability to bind MSP119 as compared to the untreated RBCs [4] was 41%, the increase in ability to bind MSP119 as compared to the untreated RBCs [5] was 52% and the reduction in ability to bind MSP119 as compared to the untreated RBCs [6] was 30%.

For “MSP1: P. falciparum merozoite surface protein-1, native full-length”, the “binding to RBCs (earlier studies)” value (RBCs) is given as “bound to RBCs in sialic acid-dependent manner” and the “binding of radiolabeled native parasite protein to GST-5ABC beads” value (GST-5ABC) is given as “bound specifically to the 5ABC domain”.

For “GMPWLSATTVRSVTHANALTVMGKASTPGAAAQIQEVKEQRI (not fully specified) [Peptide 5ABC, Recombinant human Band 3 peptide, amino acid 720-761, expressed as GST or GAL4 DNA-BD fusion]”, the “binding to GST-MSP142 on beads” value (GST-MSP142; 32P-labeled 5ABC 10, 20, 40, 80 μM) was “concentration-dependent manner”, the Kd (GST-MSP142; 32P-labeled peptide, pH 7.4, 25° C., 3.5 h) was 36 µM and the “binding to GST-MSP138 on beads” value (GST-MSP138) was “specifically bound”.

B1: Lamin C fused to GAL4 DNA-BD (pGBKT7 vector), two-hybrid control (other)
chain: MKLLSSIEQACDICRLKKLKCSKEKPKCAKCLKNNWECRYSPKTKRSPLTRAHLTEVESRLERLEQLFLLIFPREDLDMILKMDSLQDIKALLTGLFVQDNVNKDAVTDRLASVETDMPLTLRQHRISATSSSEESSNKGQRQLTVSSEEVVSREVSGIKAAYEAELGDARKTLDSVAKERARLQLELSKVREEFKELKARNTKKEGDLIAAQARLKDLEALLNSKEAALSTALSEKRTLEGELHDLRGQVAKLEAALGEAKKQLQDEMLRRVDAENRLQTMKEELDFQKNIYSEELRETKRRHETRLVEID
notes: Kit control
B1: no binding [7].

B2: 32P-labeled 5BC (recombinant human Band 3 amino acid 731-761, GST removed with thrombin) (peptide, not shown: small tags and cut ends)
peptide: SVTHANALTVMGKASTPGAAAQIQEVKEQRI
modifications: not checked
For B2, the Kd [8] was 67 µM.

B3: MSP142: 42 kDa proteolytic fragment of P. falciparum MSP1 (FCB1 strain) (protein)
chain: AISVTMDNILSGFENEYDVIYLKPLAGVYRSLKKQIEKNIFTFNLNLNDILNSRLKKRKYFLDVLESDLMQFKHISSNEYIIEDSFKLLNSEQKNTLLKSYKYIKESVENDIKFAQEGISYYEKVLAKYKDDLESIKKVIKEEKEKFPSSPPTTPPSPAKTDEQKKESKFLPFLTNIETLYNNLVNKIDDYLINLKAKINDCNVEKDEAHVKITKLSDLKAIDDKIDLFKNPYDFEAIKKLINDDTKKDMLGKLLSTGLVQNFPNTIISKLIEGKFQDMLNISQHQCVKKQCPENSGCFRHLDEREECKCLLNYKQEGDKCVENPNPTCNENNGGCDADATCTEEDSGSSRKKITCECTKPDSYPLFDGIFCS
For B3, the “binding to Band 3 (−/−) mouse RBCs (IFA)” value [9] was “neither GST-MSP142, GST-MSP138, nor GST alone bound”, the “binding to wild-type mouse RBCs (IFA)” value ([9]; GST alone did not bind) was “bound” and the “binding to wild-type human RBCs (IFA)” value [10] was “bound”. For the same molecule, the “binding of radiolabeled native parasite protein to GST-5ABC beads” value (GST-5ABC) was “bound specifically to the 5ABC domain”.

B4: 32P-labeled 5ABC (recombinant human Band 3 amino acid 720-761, GST removed with thrombin) (peptide, not shown: small tags and cut ends)
peptide: T1 sequence (P02730 720-761)
modifications: not checked
Molecule B4 has a Kd [11] of 36 µM.

B5: p53 fused to GAL4 DNA-BD (pGBKT7 vector), two-hybrid control (other)
chain: MKLLSSIEQACDICRLKKLKCSKEKPKCAKCLKNNWECRYSPKTKRSPLTRAHLTEVESRLERLEQLFLLIFPREDLDMILKMDSLQDIKALLTGLFVQDNVNKDAVTDRLASVETDMPLTLRQHRISATSSSEESSNKGQRQLTVSPVTETPGPVAPAPATPWPLSSFVPSQKTYQGNYGFHLGFLQSGTAKSVMCTYSPPLNKLFCQLAKTCPVQLWVSATPPAGSRVRAMAIYKKSQHMTEVVRRCPHHERCSDGDGLAPPQHLIRVEGNLYPEYLEDRQTFRHSVVVPYEPPEAGSEYTTIHYKYMCNSSCMGGMNRRPILTIITLEDSSGNLLGRDSFEVRVCACPGRDRRTEEENFRKKEVLCPELPPGSAKRALPTCTSASPPQKKKPLDGEYFTLKIRGRKRFEMFRELNEALELKDAHATEESGDSRAHSSYLKTKKGQSTSRHKKTMVKKVGPDSD
notes: Kit control; also called pGBKT7-53
B5: binds [12].
